To fix the notation:
B1: GpH7-B3 variant T335_05P/GpL16-k0 (antibody, human IgG1, kappa)
heavy: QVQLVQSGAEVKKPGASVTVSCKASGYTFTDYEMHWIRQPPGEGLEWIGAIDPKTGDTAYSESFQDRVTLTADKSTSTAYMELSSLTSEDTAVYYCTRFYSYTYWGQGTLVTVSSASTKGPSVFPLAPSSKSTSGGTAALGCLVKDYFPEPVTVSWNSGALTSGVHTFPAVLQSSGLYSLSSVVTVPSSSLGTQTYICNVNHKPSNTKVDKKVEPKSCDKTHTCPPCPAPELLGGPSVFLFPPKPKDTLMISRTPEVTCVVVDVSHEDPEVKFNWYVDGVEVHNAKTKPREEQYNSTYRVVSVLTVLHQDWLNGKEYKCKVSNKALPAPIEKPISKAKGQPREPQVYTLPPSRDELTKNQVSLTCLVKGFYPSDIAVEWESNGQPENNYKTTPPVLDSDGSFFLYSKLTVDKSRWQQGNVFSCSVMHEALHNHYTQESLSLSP
light: DIVMTQSPLSLPVTPGEPASISCQASESLVHSNRNTYLHWYLQKPGQSPQLLIYKVSNRFSGVPDRFSGSGSGTDFTLKISRVEAEDVGVYYCSQNTHVPPTFGQGTKVEIERTVAAPSVFIFPPSDEQLKSGTASVVCLLNNFYPREAKVQWKVDNALQSGNSQESVTEQDSKDSTYSLSSTLTLSKADYEKHKVYACEVTHQGLSSPVTKSFNRGEC
notes: homodimerized: alteration in both H chains; also called Ho Ab T335_05P
B2: GpH7-B3 variant T335_13S/GpL16-k0 (antibody, human IgG1, kappa)
heavy: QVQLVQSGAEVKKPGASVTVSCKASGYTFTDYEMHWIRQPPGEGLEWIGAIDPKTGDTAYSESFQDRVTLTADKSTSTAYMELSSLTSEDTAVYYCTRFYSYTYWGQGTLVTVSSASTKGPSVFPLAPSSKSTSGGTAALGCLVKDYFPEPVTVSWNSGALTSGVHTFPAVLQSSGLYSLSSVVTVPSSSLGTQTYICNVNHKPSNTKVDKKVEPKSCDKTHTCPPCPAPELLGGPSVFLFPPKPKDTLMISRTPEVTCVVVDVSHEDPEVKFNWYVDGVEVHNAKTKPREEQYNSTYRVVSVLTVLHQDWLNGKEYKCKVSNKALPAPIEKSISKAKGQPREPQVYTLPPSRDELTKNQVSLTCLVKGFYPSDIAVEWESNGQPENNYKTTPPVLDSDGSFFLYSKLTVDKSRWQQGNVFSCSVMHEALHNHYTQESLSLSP
light: DIVMTQSPLSLPVTPGEPASISCQASESLVHSNRNTYLHWYLQKPGQSPQLLIYKVSNRFSGVPDRFSGSGSGTDFTLKISRVEAEDVGVYYCSQNTHVPPTFGQGTKVEIERTVAAPSVFIFPPSDEQLKSGTASVVCLLNNFYPREAKVQWKVDNALQSGNSQESVTEQDSKDSTYSLSSTLTLSKADYEKHKVYACEVTHQGLSSPVTKSFNRGEC
notes: homodimerized: alteration in both H chains; also called Ho Ab T335_13S
B3: GpH7-B3 variant T335_07I/GpL16-k0 (antibody, human IgG1, kappa)
heavy: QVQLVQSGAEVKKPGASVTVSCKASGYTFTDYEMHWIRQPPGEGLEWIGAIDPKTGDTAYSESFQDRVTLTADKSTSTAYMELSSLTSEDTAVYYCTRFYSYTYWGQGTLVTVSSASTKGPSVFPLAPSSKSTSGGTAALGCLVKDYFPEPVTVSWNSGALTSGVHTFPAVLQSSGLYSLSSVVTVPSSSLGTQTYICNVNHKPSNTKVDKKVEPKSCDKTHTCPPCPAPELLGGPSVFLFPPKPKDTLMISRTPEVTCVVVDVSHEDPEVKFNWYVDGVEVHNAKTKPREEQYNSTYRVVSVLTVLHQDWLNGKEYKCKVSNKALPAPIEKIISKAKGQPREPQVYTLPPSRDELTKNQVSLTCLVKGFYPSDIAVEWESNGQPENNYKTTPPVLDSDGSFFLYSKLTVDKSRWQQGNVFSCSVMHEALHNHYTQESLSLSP
light: DIVMTQSPLSLPVTPGEPASISCQASESLVHSNRNTYLHWYLQKPGQSPQLLIYKVSNRFSGVPDRFSGSGSGTDFTLKISRVEAEDVGVYYCSQNTHVPPTFGQGTKVEIERTVAAPSVFIFPPSDEQLKSGTASVVCLLNNFYPREAKVQWKVDNALQSGNSQESVTEQDSKDSTYSLSSTLTLSKADYEKHKVYACEVTHQGLSSPVTKSFNRGEC
notes: homodimerized: alteration in both H chains; also called Ho Ab T335_07I
B4: GpH7-B3 variant T335_10E/GpL16-k0 (antibody, human IgG1, kappa)
heavy: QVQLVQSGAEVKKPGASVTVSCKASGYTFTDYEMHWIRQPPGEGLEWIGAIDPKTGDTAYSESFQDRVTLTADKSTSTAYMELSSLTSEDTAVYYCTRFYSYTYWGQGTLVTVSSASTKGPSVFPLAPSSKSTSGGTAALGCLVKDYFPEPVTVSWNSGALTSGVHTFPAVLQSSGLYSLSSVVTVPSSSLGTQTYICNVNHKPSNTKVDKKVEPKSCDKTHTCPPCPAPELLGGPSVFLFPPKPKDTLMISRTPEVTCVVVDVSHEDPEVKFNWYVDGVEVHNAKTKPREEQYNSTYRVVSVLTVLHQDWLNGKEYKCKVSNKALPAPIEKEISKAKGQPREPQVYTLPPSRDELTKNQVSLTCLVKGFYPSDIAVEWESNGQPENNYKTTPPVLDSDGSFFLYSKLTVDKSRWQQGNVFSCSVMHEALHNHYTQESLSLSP
light: DIVMTQSPLSLPVTPGEPASISCQASESLVHSNRNTYLHWYLQKPGQSPQLLIYKVSNRFSGVPDRFSGSGSGTDFTLKISRVEAEDVGVYYCSQNTHVPPTFGQGTKVEIERTVAAPSVFIFPPSDEQLKSGTASVVCLLNNFYPREAKVQWKVDNALQSGNSQESVTEQDSKDSTYSLSSTLTLSKADYEKHKVYACEVTHQGLSSPVTKSFNRGEC
notes: homodimerized: alteration in both H chains; also called Ho Ab T335_10E
B5: GpH7-A5/GpH7-B3 variant S337_02A/GpL16-k0 (antibody, human IgG1, kappa)
heavy 1: not shown
heavy 2: not shown
light: DIVMTQSPLSLPVTPGEPASISCQASESLVHSNRNTYLHWYLQKPGQSPQLLIYKVSNRFSGVPDRFSGSGSGTDFTLKISRVEAEDVGVYYCSQNTHVPPTFGQGTKVEIERTVAAPSVFIFPPSDEQLKSGTASVVCLLNNFYPREAKVQWKVDNALQSGNSQESVTEQDSKDSTYSLSSTLTLSKADYEKHKVYACEVTHQGLSSPVTKSFNRGEC
notes: heterodimerized: alteration in one H chain only; also called He Ab S337_02A
B6: GpH7-A5/GpH7-B3 variant H268_01G/GpL16-k0 (antibody, human IgG1, kappa)
heavy 1: not shown
heavy 2: not shown
light: DIVMTQSPLSLPVTPGEPASISCQASESLVHSNRNTYLHWYLQKPGQSPQLLIYKVSNRFSGVPDRFSGSGSGTDFTLKISRVEAEDVGVYYCSQNTHVPPTFGQGTKVEIERTVAAPSVFIFPPSDEQLKSGTASVVCLLNNFYPREAKVQWKVDNALQSGNSQESVTEQDSKDSTYSLSSTLTLSKADYEKHKVYACEVTHQGLSSPVTKSFNRGEC
notes: heterodimerized: alteration in one H chain only; also called He Ab H268_01G
B7: GpH7-A5/GpH7-B3 variant A327_10E/GpL16-k0 (antibody, human IgG1, kappa)
heavy 1: not shown
heavy 2: not shown
light: DIVMTQSPLSLPVTPGEPASISCQASESLVHSNRNTYLHWYLQKPGQSPQLLIYKVSNRFSGVPDRFSGSGSGTDFTLKISRVEAEDVGVYYCSQNTHVPPTFGQGTKVEIERTVAAPSVFIFPPSDEQLKSGTASVVCLLNNFYPREAKVQWKVDNALQSGNSQESVTEQDSKDSTYSLSSTLTLSKADYEKHKVYACEVTHQGLSSPVTKSFNRGEC
notes: heterodimerized: alteration in one H chain only; also called He Ab A327_10E
B8: GpH7-A5/GpH7-B3 variant G237_04F/GpL16-k0 (antibody, human IgG1, kappa)
heavy 1: not shown
heavy 2: not shown
light: DIVMTQSPLSLPVTPGEPASISCQASESLVHSNRNTYLHWYLQKPGQSPQLLIYKVSNRFSGVPDRFSGSGSGTDFTLKISRVEAEDVGVYYCSQNTHVPPTFGQGTKVEIERTVAAPSVFIFPPSDEQLKSGTASVVCLLNNFYPREAKVQWKVDNALQSGNSQESVTEQDSKDSTYSLSSTLTLSKADYEKHKVYACEVTHQGLSSPVTKSFNRGEC
notes: heterodimerized: alteration in one H chain only; also called He Ab G237_04F
B9: GpH7-A5/GpH7-B3 variant K326_04F/GpL16-k0 (antibody, human IgG1, kappa)
heavy 1: not shown
heavy 2: not shown
light: DIVMTQSPLSLPVTPGEPASISCQASESLVHSNRNTYLHWYLQKPGQSPQLLIYKVSNRFSGVPDRFSGSGSGTDFTLKISRVEAEDVGVYYCSQNTHVPPTFGQGTKVEIERTVAAPSVFIFPPSDEQLKSGTASVVCLLNNFYPREAKVQWKVDNALQSGNSQESVTEQDSKDSTYSLSSTLTLSKADYEKHKVYACEVTHQGLSSPVTKSFNRGEC
notes: heterodimerized: alteration in one H chain only; also called He Ab K326_04F
B10: GpH7-A5/GpH7-B3 variant A327_09D/GpL16-k0 (antibody, human IgG1, kappa)
heavy 1: not shown
heavy 2: not shown
light: DIVMTQSPLSLPVTPGEPASISCQASESLVHSNRNTYLHWYLQKPGQSPQLLIYKVSNRFSGVPDRFSGSGSGTDFTLKISRVEAEDVGVYYCSQNTHVPPTFGQGTKVEIERTVAAPSVFIFPPSDEQLKSGTASVVCLLNNFYPREAKVQWKVDNALQSGNSQESVTEQDSKDSTYSLSSTLTLSKADYEKHKVYACEVTHQGLSSPVTKSFNRGEC
notes: heterodimerized: alteration in one H chain only; also called He Ab A327_09D

One experiment has as its target T1, FcγRIIa R extracellular domain with C-terminal His tag (human, UniProt P12318 34-217).
T1 construct: extracellular domain; also called FcgRIIa R; 2aR; not shown: His tag at the C terminus
T1 sequence (looked up): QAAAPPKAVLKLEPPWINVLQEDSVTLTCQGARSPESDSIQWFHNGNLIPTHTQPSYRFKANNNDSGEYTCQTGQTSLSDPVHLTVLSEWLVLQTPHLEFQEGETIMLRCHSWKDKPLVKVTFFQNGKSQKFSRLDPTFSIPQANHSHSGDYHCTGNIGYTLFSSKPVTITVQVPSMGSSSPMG
As to the kind of experiment: SPR (Biacore), relative FcγRIIa R binding, GpH7-B3/GpL16-k0 = 100. The procedure: Analysis of interaction between objective antibody and the FcγR was carried out using Biacore T100 (GE Healthcare). HBS-EP+ (GE Healthcare) was used as the running buffer, and the measurement temperature was set to 25° C. Chips produced by immobilizing the antigen peptide by the amine coupling method to a Series S Sencor Chip CM5 (GE Healthcare), or alternatively, chips produced by allowing preliminarily biotinylated antigen peptides to interact with and immobilize onto a Series S Sensor Chip SA (certified) (GE Healthcare) were used. Antibodies of interest were captured onto an antigen peptide-immobilized chip, and allowed to interact to each FcγR diluted with running buffer. To regenerate and repeatedly use the chip, the antibodies captured on the chip were washed off by reacting 10 mM glycine-HCl, pH 1.5.
B1: the Ho/Con_2aR is 104 % of control. In the case of B2, the Ho/Con_2aR was 102 % of control. The same measure, in the same setting: to B3 belongs 107 % of control.

Turning to B4, the Ho/Con_2aR was 109 % of control.

The target of a further experiment is T1, FcγRIIa R extracellular domain with …. In words: SPR (Biacore), relative FcγRIIa R binding, GpH7-A5/GpH7-B3/GpL16-k0 = 100. Background: Surface plasmon resonance follows binding to a sensor surface in real time, without labels.
In the case of B5, the He/Con_2aR is 105 % of control. On the same count and under the same terms, to B6 belongs 124 % of control; to B7, 110 % of control.

B8: the He/Con_2aR is 126 % of control. As to B9, the He/Con_2aR is 135 % of control.

As to B10, the He/Con_2aR is 124 % of control.

The values are drawn from patent publication US20150344570A1 (published 2015).
